Assay [1] is described as follows: high-throughput enzyme assay with crude bacterial extract. The format is biochemical. The following applies: relative to wild-type RdpA; for Average quizalofop-P activity: average of replicates. The protocol:
The high-throughput bacterial protein expression was achieved by synthesizing a recombinant DNA molecule encoding each engineered protein and cloning this into a bacterial expression vector with a C-terminal histidine tag (His-tag) operably linked to the recombinant DNA molecule. The vectors were used to transform Escherichia coli (E. coli), and bacterial expression of the engineered proteins was induced. Overnight E. coli cultures were grown in 96-well plates and the cultures were centrifuged to pellet the bacteria. The bacterial pellets were lysed by adding 100 ul lysis master mix (10 ml of Bacteria Protein Extraction Reagent (B-PER®) II (Pierce Biotechnology, Rockford, IL; cat. no. 78260); 10 ul Lysozyme (10 ug/ml final; Lysozyme American Bioanalytical, Natick, MA; cat. no. AB011780-00005); and 40 ul Benzonase® Nuclease (100 Units/ml final, Novagen, Darmstadt, Germany; cat no 71206-3)) to each well. The plates were vortexed then incubated for 30 minutes at 4° C. 400 ul of MOPS buffer (pH 6.57) was added to cach well and the debris pelleted by centrifugation. The lysate supernatant was carefully removed and used as the crude bacterial extract for subsequent enzymatic analysis.
The high-throughput herbicide degradation enzyme assay was designed to assay the enzymatic activity of the engineered proteins towards various herbicides using crude bacterial extract. The engineered protein's oxygenase activity (that is, its enzymatic activity) was measured by an end point colorimetric assay utilizing detection of phenol products through measurement of absorbance at 510 nm from 4-aminoantipyrine and potassium ferricyanide. This assay was based on the assay described in Fukomori and Hausinger, Journal of Biological Chemistry (1993) 268(32):24311-24317. Enzyme reactions were assayed in 96-well plates in a total volume of 150ul that contained: 20 mM MOPS pH 6.75, 50-200 uM NH4FeSO4, 50-200 uM sodium ascorbate, 1 mM alpha-ketoglutarate (aKG), 10 ul of E. coli cell lysate containing expressed engineered protein, and substrate (either an AOPP herbicide or phenoxy acid herbicide). […] Absorbance measurements were made on a standard laboratory spectrometer. Assays were scaled as needed to enhance throughput. Standard curves were generated using purified protein or product standards.
Using this high-throughput bacterial protein expression and enzyme assay system, activities of approximately 1200 engineered proteins were measured relative to the activity of a selected wild-type protein, RdpA. In a 96 well plate assay, there were 3 controls (crude bacterial extract without an engineered protein) and 3 positive controls (crude bacterial extract with wild-type protein). The absorbance of the wells was measured and the protein activity was calculated using the following formula:
[formula] where, Activityi is the activity of the sample, Absorbancei is the absorbance of the sample, AbsorbanceWT is the absorbance of the wells containing extract from E. coli expressing the wild-type enzyme, and AbsorbancepET is the absorbance of the wells containing extract from E. coli without an engineered protein. Activity for each unique engineered protein was measured in duplicate and was reported as an average of the two measurements.
Using the information learned from the first assays, protein engineering was then done as described previously to produce additional engineered proteins, which were tested as described in this Example 1. The results of the high-throughput enzyme assay with quizalofop-P as the substrate for five of these additional engineered proteins are provided in Table 2.

Assay [2] has as its system transgenic maize plants. Put plainly: inbred trait efficacy field trials (R2). The format is in vivo. As to conditions: with or without CTP; quizalofop-P 0.16 lb ai/acre PRE, V4, V8. How it is done: Inbred trait efficacy field trials were conducted to assess tolerance to the AOPP herbicides and sensitivity to the cyclohexanediones (CHD) herbicides in an inbred background. R2 inbred plants were generated by selfing a homozygous transgenic R1 plant and collecting seed. R2 inbred plants containing MON-HT55 with or without a CTP or MON-HT51 with a CTP and were evaluated at two field locations. Herbicide treatment was 2× quizalofop-P at 0.16 lb ai/acre applied PRE (after planting but before emergence) followed by quizalofop-P at 0.16 lb ai/acre applied at V4 growth stage followed by quizalofop-P at 0.16 lb ai/acre applied at V8 growth stage. Plots were rated for crop injury 7-10 days after herbicide application on a scale of 0-100 with zero being no injury and 100 being complete crop death. All data were subjected to analysis of variance and means separated at LSD (0.05). […] To test for sensitivity to CHD herbicides, which is desirable for use in volunteer control, plants were treated with a 1× rate of clethodim (0.25 lb ai/acre) at V8 growth stage. […] The resulting F1 plants containing MON-HT55 (SEQ ID NO:13) with or without a CTP or MON-HT51 (SEQ ID NO: 3) without a CTP were evaluated at six field locations. […] This permitted the engineered protein to be evaluated in maize under high temperature and water stress conditions. […]

Assay [3] concerns transgenic maize plants. In words: hybrid trait efficacy field trials (F1). The format is in vivo. The following applies: 2× quizalofop-P, six locations. The protocol: Inbred trait efficacy field trials were conducted to assess tolerance to the AOPP herbicides and sensitivity to the cyclohexanediones (CHD) herbicides in an inbred background. R2 inbred plants were generated by selfing a homozygous transgenic R1 plant and collecting seed. R2 inbred plants containing MON-HT55 with or without a CTP or MON-HT51 with a CTP and were evaluated at two field locations. Herbicide treatment was 2× quizalofop-P at 0.16 lb ai/acre applied PRE (after planting but before emergence) followed by quizalofop-P at 0.16 lb ai/acre applied at V4 growth stage followed by quizalofop-P at 0.16 lb ai/acre applied at V8 growth stage. Plots were rated for crop injury 7-10 days after herbicide application on a scale of 0-100 with zero being no injury and 100 being complete crop death. All data were subjected to analysis of variance and means separated at LSD (0.05). […] To test for sensitivity to CHD herbicides, which is desirable for use in volunteer control, plants were treated with a 1× rate of clethodim (0.25 lb ai/acre) at V8 growth stage. Volunteer control using a 1× rate of clethodim was 100% effective for all transgenic plants tested. Hybrid trait efficacy field trials were conducted to assess tolerance to the AOPP herbicides and sensitivity to the cyclohexanediones (CHD) herbicides in a hybrid background. F1 hybrid plants were produced by crossing an R1 inbred plant with a non-transgenic plant and collecting seed. The resulting F1 plants containing MON-HT55 (SEQ ID NO:13) with or without a CTP or MON-HT51 (SEQ ID NO: 3) without a CTP were evaluated at six field locations. The hybrid trait efficacy field trials were conducted at six locations under a range of environmental conditions, including high heat and drought conditions during the field season. This permitted the engineered protein to be evaluated in maize under high temperature and water stress conditions. Initial injury from 2× applications of quizalofop-P were higher than desired (>10% injury) at 7-10 days after application. Plants eventually grew out of most of the injury, with generally less injury from the V8 growth stage application as compared to the V4 growth stage application. Excessive injury was also noted when quizalofop-P was applied very early (for example, at VE-V2 growth stage).

B1: MON-HT51: engineered oxygenase protein, amino acid sequence SEQ ID NO:1 (protein)
chain: MHAALSPLSQRFERIAVQPLTGVLGAEITGVDLREPLSDSTWNEILDAFHTYQVIYFPGQAITNEQHIAFSRRFGPVDPVPLLKSIEGYPEVQMIRREANESGRVIGDDWHTDSSFLDAPPAAVVMRAIDVPEHGGDTGFLSMYTAYDALSDGLKKLISGLNVVHSATRVFGSLYQAQNRRFSNTSVKVMDVADGDRETVHPLVVTHPGSGRKGLYVNQVYCQRIEGMSEKESEPLLSFLFAHATKPEFTCRVRWKKDQVLVWDNLCTMHYAINDYHGQTRILHRTTVGGVRPAR
In the case of B1, in assay [1], the “Replicate 1 quizalofop-P activity” value is given as 117.02, the “Replicate 2 quizalofop-P activity” value was 124.87, the “Replicate 3 quizalofop-P activity” value worked out at 110.17 and the “Average quizalofop-P activity” value is recorded as 117.35. Also, in the assay with transgenic maize plants [2], the “crop injury of inbred plants” value was “no injury”. In the assay with transgenic maize plants [3] (CTP Yes), the “% injury after V4 spray” value is on record as 51.8% and the “% injury after V8 spray” value came out at 33.3%.

B2: MON-HT55: engineered oxygenase protein, amino acid sequence SEQ ID NO:11 (protein)
chain: MHAALSPLSQRFERIAVQPLTGVLGAEITGVDLREPLDDSTWNEILDAFHTYQVIYFPGQAITNEQHIAFSRRFGPVDPVPLLKSIEGYPEVQMIRREANESGRVIGENWHTDSTFLDAPPAAVVMYAKEIPPYGGDTLFTSMYTAWETLSPTMQATIEGLNVVHSATRVFGSLYQAQNRRFSNTSVKVMDVDAGDRETVHPLVVTHPETGRKGLYVNQVYCQRIEGMSEKESEPLLSFLFAHATKPEFTCRVRWQEGDVLVWDNLCTQHYAVPDYAGKFRYLTRTTVGGVRPAR
B2: in assay [1], the “Replicate 1 quizalofop-P activity” value came out at 118.48, the “Replicate 2 quizalofop-P activity” value came to 99.79 and the “Average quizalofop-P activity” value is on record as 109.13. Moreover, the “crop injury of inbred plants” value in the assay on transgenic maize plants [2] was “no injury”. In the assay with transgenic maize plants [3] (CTP No), the “% injury after V4 spray” value was 46.8% and the “% injury after V8 spray” value amounted to 78.8%. Also, in the assay on transgenic maize plants [3] (CTP Yes), the “% injury after V4 spray” value is 42.6-48.3% and the “% injury after V8 spray” value is 14.2-38.8%.

The values are drawn from patent publication US12723255B2, “Herbicide tolerance genes and methods of use thereof” (priority 2014, dated 2026).
